Patent publication US20090264338A1, “Inhibitor of Insulin Multimer Formation” (priority 2005, published 2009)

Experiments:
insulin hexamer = target: T1, insulin hexamer (Homo sapiens, UniProt P01308); experiment: Gel filtration chromatography of insulin hexamer formation in the presence of INHD peptide; type: biochemical; conditions: 5 μM insulin
T1 construct: purchased Sigma-Aldrich Corp
Experimental: In order to separately detect insulin hexamers and insulin monomers, gel filtration chromatography was performed. PBS supplemented with 100 μM ZnCl2 was used as a solvent to form hexamers at a concentration of this experiment (5 μM). This is because zinc ion stabilizes insulin hexamers. For the 5 μM insulin solution, the hexamer was the main peak, and the ratio of the monomer was extremely low.
The insulin solution was subjected to gel filtration chromatography in the presence of the INHD peptide to show inhibition of insulin hexamer formation by the INHD peptide.

[1] = system: Fc-fusion human insulin receptor; experiment: BIACORE 2000 analysis of the interaction between insulin and insulin receptor in the presence of the peptides; type: binding; conditions: 5 μM insulin forming a hexamer in the presence of 100 μM ZnCl2, 500 μM peptide added
Experimental: A DNA sequence encoding the Fc-fusion human insulin receptor (Bass, J. J. Biol. Chem. 271, 19367 (1996)) was constructed and inserted into the vector pEF-BOS (Nucleic Acids Res. 1990 Sep. 11; 18(17): 5322). Mammalian cells, FreeStyle 293-F, were cultured at 37° C., and the concentration of the cells was adjusted to 1×10^6 cells/mL. The insulin receptor-expressing plasmid was mixed with Cellfectin (Invitrogen Corporation), and added to the cells, followed by culture for an additional two days. The obtained culture supernatant was purified by protein A affinity chromatography, to yield an Fc-fusion human insulin receptor.
Commercially available insulin (manufactured by Sigma-Aldrich Corp.) and the Fc-fusion human insulin receptor obtained by the method above (item (1)) were used to analyze the interaction between insulin and the insulin receptor (BIACORE 2000, manufactured by Biacore Medical Technologies, Inc.). First, PBS with or without 100 μM ZnCl2 was used to prepare 5 μM insulin solutions.
Subsequently, 500 μM INHD1 and INHD2 peptides were added to insulin that forms a hexamer in the presence of ZnCl2, and the interaction between insulin and the insulin receptor was observed.

T1 sequence (P01308 25-54 limits assumed): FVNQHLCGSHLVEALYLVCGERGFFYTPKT
T1 sequence (P01308 90-110 limits assumed): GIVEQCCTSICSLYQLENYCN

| peak which represents the insulin hexamer (gel filtration) (insulin hexamer; 500 μM peptide, PBS with 100 μM ZnCl2) | Substance | receptor binding of insulin (interaction between insulin and the insulin receptor) [1] | inhibition of hexamer formation (gel filtration) (insulin hexamer; PBS with 100 μM ZnCl2, compared with INHD1 peptide) |
| --- | --- | --- | --- |
| significantly decreased | INHD1: Designed peptide from insulin B-chain positions 5 to 29, with Glu/Lys introduced, Glu13 to Gln, Leu17 to Ala, Cys19 to Ser (HEEGSKKVQELYAKSGERGFFYTPK) | significantly increased to a level approximately equal to that with an insulin monomer |  |
|  | INHD2: Smaller designed peptide corresponding to the insulin B-chain α-helix at positions 5 to 20 (HEEGSKKVQELYAKSG) | significantly increased to a level approximately equal to that with an insulin monomer | slightly lower than that for the INHD1 peptide |
